The labels stand for the following.
B1: I283T-P284D-N287P-S322T-N388M-R422F-C430N-L432F-L434W-S436N-A463G-Y469D (protein)
chain: MFLKSLREQINLLKRQGDLRIINRPVDSYLEAAAIIRRSTETKAPVPLMTNIKGYPGCSIVGGLAALSSNPEYPLSRVAMSLGLSTTASAQSIVQYLIDGLKKTPYLPVEIDSNSAPCKQNILRGEDASLAHFPIPQVHQHDGNRYVNTWGVFIVESPDGQWCNWSIQRVQYLNDRQMIALVFPSQHISDIWEEWVKIGKPMPYALVQGCEPIVPYIAGLPLLERNVNEAEYIGALYGKGIEVVKCETHDLRVPASSEVVIEGYFAITREGVEGPFGEFAGYTDNEPSLQPILSITAISWQDDPIWPVVAEGKPVDEYHTCTGIGDAAAIQNVLLTANLPVSFVWVPLYSACHLMIVSINRHWRQTHPDLTSEQLTKKVGDVIHQTRMSIKLPKIVVLDDDVDPADTESLLWALATRIHPEFKRYFYESNIFPWLNCYSEEERHNRKGKRVIIDALLPENHGGISSFDDAYPDDIKQRVLMHWETDFSHD
B2: I283T-P284D-N287P-S322T-N388M-C430N-L432F-L434W-S436N-A463F-Y469D (protein)
chain: B1 chain with F422R, G463F
B3: I283T-P284D-N287P-S322T-N388M-C430N-L432F-L434W-S436N-A463G-Y469T (protein)
chain: B1 chain with F422R, D469T
B4: N285M-N287T-S322T-N388M-K394R-C430N-L432F-L434W-S436N-N460G-dG462 (protein)
chain: B1 chain with T283I, D284P, N285M, P287T, K394R, F422R, N460G, G463A, D469Y
B5: I283T-P284D-E286C-N287P-S322T-N388M-C430N-L432F-L434W-S436N-A463G-Y469D (protein)
chain: B1 chain with E286C, F422R
B6: N285M-N287T-S322T-N388M-K394R-C430N-L432F-L434W-S436N-dG462-Y469T (protein)
chain: B1 chain with T283I, D284P, N285M, P287T, K394R, F422R, G463A, D469T
B7: I283Q-P284E-N287Q-S322T-N388M-K394R-C430N-L432F-L434W-S436N-dA463 (protein)
chain: B1 chain with T283Q, D284E, P287Q, K394R, F422R, G463A, D469Y
B8: I283T-P284D-N287P-S322T-N388M-i421aG-C430N-L432F-L434W-S436N-A463G-Y469D (protein)
chain: B1 chain with F422R
B9: I283L-N285M-N287T-S322T-A337T-N388M-K394R-C430N-L432F-L434W-S436N-dG462 (protein)
chain: B1 chain with T283L, D284P, N285M, P287T, A337T, K394R, F422R, G463A, D469Y
B10: I283T-P284D-N287P-S322T-N388M-E421T-C430N-L432F-L434W-S436N-A463G-Y469D (protein)
chain: B1 chain with E421T, F422R
B11: P284E-N287Q-S322T-N388M-K394R-C430N-L432F-L434W-S436N-dG462-Y469S (protein)
chain: B1 chain with T283I, D284E, P287Q, K394R, F422R, G463A, D469S
B12: I283T-P284D-N287P-S322T-N388M-R422V-C430N-L432F-L434W-S436N-A463G-Y469D (protein)
chain: B1 chain with F422V
B13: I283F-P284E-N287Q-S322T-N388M-K394R-C430N-L432F-L434W-S436N-dG462 (protein)
chain: B1 chain with T283F, D284E, P287Q, K394R, F422R, G463A, D469Y
B14: P284E-N287Q-S322T-N388M-K394R-C430N-L432F-L434W-S436N-dG462-Y469D (protein)
chain: B1 chain with T283I, D284E, P287Q, K394R, F422R, G463A
B15: S185T-N388M-C430P-L432F-L434W-S436N (protein)
chain: B1 chain with S185T, T283I, D284P, P287N, T322S, F422R, N430P, G463A, D469Y
B16: N285M-N287T-S322T-N388M-K394R-C430N-L432F-L434W-S436N-dA463-S465I (protein)
chain: B1 chain with T283I, D284P, N285M, P287T, K394R, F422R, G463A, S465I, D469Y
B17: I283T-P284D-N287P-S322T-N388M-E421V-C430N-L432F-L434W-S436N-A463G-Y469D (protein)
chain: B1 chain with E421V, F422R
B18: N285M-N287T-S322T-N388M-K394R-C430N-L432F-L434W-S436N-dG462-A463M (protein)
chain: B1 chain with T283I, D284P, N285M, P287T, K394R, F422R, G463M, D469Y
B19: N388M-K394H-C430S-L432F-L434W-S436N (protein)
chain: B1 chain with T283I, D284P, P287N, T322S, K394H, F422R, N430S, G463A, D469Y
B20: N285M-N287T-S322T-N388M-K394R-C430N-L432F-L434W-S436N-dG462-A470S (protein)
chain: B1 chain with T283I, D284P, N285M, P287T, K394R, F422R, G463A, D469Y, A470S
B21: I283T-P284D-N287P-S322T-N388M-C430N-L432F-L434W-S436N-G462P-A463G-Y469D (protein)
chain: B1 chain with F422R, G462P
B22: N285M-N287T-S322T-N388M-K394R-C430N-L432F-L434W-S436N-dG462-A463V (protein)
chain: B1 chain with T283I, D284P, N285M, P287T, K394R, F422R, G463V, D469Y
B23: N285M-N287T-S322T-N388M-K394R-C430N-L432F-L434W-S436N-dA463-A470S (protein)
chain: B1 chain with T283I, D284P, N285M, P287T, K394R, F422R, G463A, D469Y, A470S
B24: I283C-P284E-N287Q-S322T-N388M-K394R-C430N-L432F-L434W-S436N-dA463 (protein)
chain: B1 chain with T283C, D284E, P287Q, K394R, F422R, G463A, D469Y
B25: P284E-N287Q-L289H-S322T-N388M-K394R-C430N-L432F-L434W-S436N-dA463 (protein)
chain: B1 chain with T283I, D284E, P287Q, L289H, K394R, F422R, G463A, D469Y
B26: N285M-N287T-S322T-N388M-K394R-C430N-L432F-L434W-S436N-dG462-Y469S (protein)
chain: B1 chain with T283I, D284P, N285M, P287T, K394R, F422R, G463A, D469S
B27: I283T-P284D-N287P-S322T-N388M-R422Q-C430N-L432F-L434W-S436N-A463G-Y469D (protein)
chain: B1 chain with F422Q
B28: I283T-P284D-N287P-S322T-N388M-C430N-L432F-L434W-S436N-E459P-A463G-Y469D (protein)
chain: B1 chain with F422R, E459P
B29: N285M-N287T-S322T-N388M-K394R-C430N-L432F-L434W-S436N-dG462-Y469N (protein)
chain: B1 chain with T283I, D284P, N285M, P287T, K394R, F422R, G463A, D469N
B30: I283L-P284E-N287Q-S322T-N388M-K394R-C430N-L432F-L434W-S436N-dA463 (protein)
chain: B1 chain with T283L, D284E, P287Q, K394R, F422R, G463A, D469Y
B31: N285M-N287T-S322T-N388M-K394R-C430N-L432F-L434W-S436N-dG462-A463F (protein)
chain: B1 chain with T283I, D284P, N285M, P287T, K394R, F422R, G463F, D469Y
B32: P284D-N287Q-S322T-N388M-K394R-C430N-L432F-L434W-S436N-dA463 (protein)
chain: B1 chain with T283I, P287Q, K394R, F422R, G463A, D469Y
B33: S185T-N388M-C430S-L432F-L434W-S436N (protein)
chain: B1 chain with S185T, T283I, D284P, P287N, T322S, F422R, N430S, G463A, D469Y
B34: N285M-N287T-S322T-N388M-K394R-C430N-L432F-L434W-S436N-dA463-S465V (protein)
chain: B1 chain with T283I, D284P, N285M, P287T, K394R, F422R, G463A, S465V, D469Y

This is an account of results in patent publication US20250327097A1, “ORGANISMS PRODUCING LESS CROTONIC ACID” (Global Bioenergies, priority 2021, published 2025).

Residue numbers refer to the chain shown, from its start. In names and notes the source's numbering stands.

For this assay, the system named is 3-methylcrotonic acid. The format is biochemical, Yersinia frederiksenii. The arrangement: key: “+” representing a low increase in activity; “++++” representing a high increase in activity.
Consider B1, for which the “Activity relative to WT” value is “++++”.

In the case of B2, the “Activity relative to WT” value is recorded as “++++”.

Regarding B3, the “Activity relative to WT” value was “++++”.

With B4, the “Activity relative to WT” value is “++++”.

For the molecule B5, the “Activity relative to WT” value was “++++”.

For B6, the “Activity relative to WT” value is on record as “++++”.

On to B7, for which the “Activity relative to WT” value is listed as “++++”.

With B8, the “Activity relative to WT” value is recorded as “++++”.

Regarding B9, the “Activity relative to WT” value was “++++”.

Turning to B10, the “Activity relative to WT” value is “++++”.

Take B11: the “Activity relative to WT” value is “++++”.

For the molecule B12, the “Activity relative to WT” value is “++++”.

B13: the “Activity relative to WT” value is “++++”.

For the molecule B14, the “Activity relative to WT” value was “++++”.

As for B15, the “Activity relative to WT” value is recorded as “+”.

In the case of B16, the “Activity relative to WT” value is “++++”.

With B17, the “Activity relative to WT” value is reported as “++++”.

As to B18, the “Activity relative to WT” value is given as “++++”.

As for B19, the “Activity relative to WT” value is “+”.

As to B20, the “Activity relative to WT” value is on record as “++++”.

For the molecule B21, the “Activity relative to WT” value was “++++”.

As to B22, the “Activity relative to WT” value is listed as “++++”.

Regarding B23, the “Activity relative to WT” value is given as “++++”.

For the molecule B24, the “Activity relative to WT” value is given as “++++”.

On to B25, for which the “Activity relative to WT” value was “++++”.

Consider B26, for which the “Activity relative to WT” value is “++++”.

Turning to B27, the “Activity relative to WT” value is given as “++++”.

Take B28: the “Activity relative to WT” value is on record as “++++”.

Take B29: the “Activity relative to WT” value is reported as “++++”.

Regarding B30, the “Activity relative to WT” value is “++++”.

On to B31, for which the “Activity relative to WT” value is “++++”.

B32: the “Activity relative to WT” value is given as “++++”.

For the molecule B33, the “Activity relative to WT” value is given as “+”.

Consider B34, for which the “Activity relative to WT” value is recorded as “++++”.
